Consider 1 molecule from patent publication US20090104177A1, “PEPTIDES FOR INHIBITING THE INTERACTION OF PROTEIN KINASE A AND PROTEIN KINASE A ANCHOR PROTEINS” (FORSCHUNGSVERBUND BERLIN E.V., priority 2004, published 2009).

For assay [1], the target named is T1, regulatory RIIα subunit of PKA (human) (human, UniProt P13861 1-404, 32P-labelled with the catalytic subunit of PKA when used as probe in the RII overlay experiments).
T1 construct: Radiolabelled probe in RII overlays; format in the surface plasmon resonance measurements is not described; also called human RIIα
The assay can be described thus: RII overlay: SPOT peptides on membrane, probe 32P-labelled RIIα, phosphoimager.

For assay [2], the target named is T2, regulatory RIIβ subunit of PKA (rat) (rat, UniProt P12369 1-416, 32P-labelled with the catalytic subunit of PKA when used as probe in the RII overlay experiments).
T2 construct: Radiolabelled probe in RII overlays; format in the surface plasmon resonance measurements is not described; also called RIIβ subunit of PKA from rats
In words: RII overlay: SPOT peptides on membrane, probe 32P-labelled RIIβ, phosphoimager.

T2 sequence (P12369 whole entry): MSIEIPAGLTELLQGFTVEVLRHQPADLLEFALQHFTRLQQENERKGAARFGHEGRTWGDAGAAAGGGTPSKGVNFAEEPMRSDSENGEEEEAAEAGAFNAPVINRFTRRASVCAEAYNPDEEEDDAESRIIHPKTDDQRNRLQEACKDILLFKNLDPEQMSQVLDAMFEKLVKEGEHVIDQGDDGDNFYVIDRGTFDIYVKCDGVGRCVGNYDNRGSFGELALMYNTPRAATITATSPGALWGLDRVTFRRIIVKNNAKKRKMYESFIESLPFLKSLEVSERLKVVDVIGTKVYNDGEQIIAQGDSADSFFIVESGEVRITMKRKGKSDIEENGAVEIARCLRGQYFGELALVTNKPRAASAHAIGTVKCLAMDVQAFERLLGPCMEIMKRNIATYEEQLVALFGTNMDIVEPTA
T1 sequence (P13861 whole entry): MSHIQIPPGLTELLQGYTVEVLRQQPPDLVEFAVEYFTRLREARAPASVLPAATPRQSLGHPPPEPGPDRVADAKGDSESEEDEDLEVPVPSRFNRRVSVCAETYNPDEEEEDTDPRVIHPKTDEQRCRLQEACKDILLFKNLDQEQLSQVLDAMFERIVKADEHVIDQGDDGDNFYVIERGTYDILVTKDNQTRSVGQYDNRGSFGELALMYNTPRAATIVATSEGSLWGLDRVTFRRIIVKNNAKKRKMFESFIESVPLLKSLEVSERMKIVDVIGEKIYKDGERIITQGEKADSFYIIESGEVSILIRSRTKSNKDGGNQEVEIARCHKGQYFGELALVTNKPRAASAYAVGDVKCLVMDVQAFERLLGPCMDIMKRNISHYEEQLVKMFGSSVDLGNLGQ

B1: AKAP18δ-RI (peptide)
peptide: EPEDAELVRLSKRLVENAVLKAVQQYLEETQ
notes: also called Akap18delta-RI; No. AA
For B1, the binding result in assay [1] and in assay [2] was “binds” each time.
